In patent US20090263370A1, “METHODS FOR TREATING TACHYKININ-MEDIATED DISEASES WITH CHOLINESTERASE” (priority 2006, published 2009):
Values joined by “and” are separate entries in the source; they are usually repeats but may differ in a detail not shown here. Equal values may be shown once.

Experiments:
[1] = test system: Substance P (SP); assay: Hydrolysis of Substance P (SP) by cholinesterase, flight mass spectrometry; assay type: biochemical; settings: for first restriction site: SP C-terminal
Protocol: Hydrolysis of SP was performed by acetylcholinesterase and butyrylcholinesterase separately.
1) Butyrylcholinesterase, specific activity 200 U, 50 mg of dry powder was dissolved in 5 mL of aqueous solution of iron(III) (double distilled water, Fe^+3 content, 1 mg/L) and centrifuged at 10,000 r/min for 4 minutes;
2) Butyrylcholinesterase, specific activity 200 U, 50 mg of dry powder was dissolved in 5 mL of double distilled water and centrifuged at 10,000 r/min for 4 minutes;
3) Acetylcholinesterase, specific activity 300 U, 20 mg of dry powder was dissolved in 1 mL of double distilled water and centrifuged at 10,000 r/min for 4 minutes.
SP, with purity 98%, in an aqueous solution at a concentration 0.5 μg/mL.
3. Reaction 100 μL of the substrate and 100 μL of enzyme were mixed, and the initial reaction temperature was 22° C.
Flight mass spectrometry: 1 μL of matrix (CHCA) and 1 μL of the reactant were mixed, and the mixture was directly assayed by flight mass spectrometry.

[2] = test system: Kunming mice; assay: Analgesic experiment on mice by acetic acid twisting method; assay type: in vivo; settings: for Inhibition rate (%): compared with saline solution group; for Writhing number: within 15 minutes after 0.6% acetic acid i.p.
From the text: (§1) 1. Materials and Reagents
1) Reagents: acetic acid, manufactured by Guangdong Xinning Chemical Plant; butyrylcholinesterase (activity: 200 U per mL solution) prepared following the method of Example 2; Fenbid liniment (ibuprofen), produced by GlaxoSmithKline (China) Investment Co, Ltd., Product batch number: 04050471.
2) Animals: Kunming mice, 40, weight 20±2 g, of either sex.
Saline solution group (negative control group);
Experimental group 1, smeared with butyrylcholinesterase aqueous solution;
Experimental group 2, intraperitoneal injection with butyrylcholinesterase aqueous solution; and
Fenbid group (positive control group).
40 Kunming mice were randomly grouped with each group 10. The negative control group was administered 0.9% saline solution (0.1 mL/10 g) by intraperitoneal injection. An area of 1×1 cm of the hair of the mice of the experimental group 1 was cut in the back, and butyrylcholinesterase (enzyme activity: 200 U per mL solution) was smeared onto it. The experimental group 2 was administered 0.1 mL/10 g butyrylcholinesterase solution (enzyme activity: 200 U per mL solution) by intraperitoneal injection. An area of 1×1 cm of the hair of the mice of the positive control group was cut in the back, and Fenbid was smeared onto it. Each group of mice was fed in different cages. At 5 minutes after administration, following the method taught in Pharmacological Experimental Methodology (3rd Edition) (Xu Shuyun, et al., People's Health Publishing House, 2002, 1), each mouse was administered 0.6% acetic acid ([…]) by intraperitoneal injection, and the writhing number of mice within 15 minutes was recorded. The number was compared with that of saline solution group (0.9%) to calculate writhing inhibition rate in mice.

[3] = test system: Wister rats; assay: Anti-inflammatory experiment with adjuvant arthritis rats; assay type: in vivo
From the text: as §1
1) Reagents: butyrylcholinesterase aqueous solution (activity: 300 U per mL solution) prepared following the method of Example 2; Fenbid liniment (ibuprofen), manufactured by GlaxoSmithKline (China) Investment Co, Ltd., Product batch number: 04050471.
2) Animals: Wister rats, 30, weight 200±2 g, of either sex, from Laboratory Animal Center, Sun Yat-sen University.
Wister rats were randomly grouped into 3 groups with each group of 10. Following the method taught in Pharmacological Experimental Methodology (The third edition) (Xu Shuyun, et al., People's Health Publishing House, 2002, 1), each rat was administered 0.1 mL of Freund's adjuvant (FCA) in the right hindlimb by intradermal injection. After 0.5 h, the experimental group and Fenbid group were separately administered butylcholineterase aqueous solution and Fenbid in the inflammatory site of the right hindlimb, one time per day for a week. At 2 h, 6 h, 12 h, 24 h, 48 h, 72 h and 7 d after administration, the swelling degree of the right hindlimb of rats was separately measured by a vernier caliper.

[4] = test system: patients with summer diarrhea; assay: Prevention and treatment of summer diarrhea; assay type: in vivo; settings: 0.5 mL of 200 U aqueous solution in 3 mL cold water, rinsed in mouth and swallowed, repeated after two hours
Protocol: To 0.5 mL of butyrylcholinesterase (enzyme activity 200 U) aqueous solution, 3 mL of cold water was added. A portion of the solution was placed into the mouth of a patient, and lightly rinsed for 5-10 minutes. Then, the solution was swallowed. Two hours later, the previous steps were repeated.

[5] = test system: patients with wound caused by trauma, burn or scald; assay: Prevention and treatment of trauma and inflammation; assay type: in vivo; settings: enzyme activity 300 U, sprayed 1-3 times directly onto wound
From the text: Acetylcholinesterase (enzyme activity 300 U) was sprayed 1-3 times directly onto a wound. If necessary, gauze pretreated with acetylcholinesterase may also cover the wound. […] Pains disappeared. If the wound was not already inflamed, inflammation was not observed, the wound recovered naturally, and a week later dead skin started to fall off. If the wound was inflamed, the inflammation would not develop; three days later, the wound recovered naturally. The mentioned-above wound was a wound caused by trauma, burn or scald.

[6] = test system: patients with swelling gingivitis and pain; assay: Prevention and treatment of gingivitis; assay type: in vivo; settings: 300 U
Protocol: Patients suffered from swelling gingivitis and pain. Sterile cotton swab was wetted by acetylcholinesterase (enzyme activity 300 U) and placed on the affected area for 10 min, one or two times per day.

[7] = test system: patient with tinea pedis; assay: Prevention and treatment of tinea pedis; assay type: in vivo
Protocol: To 2 L of warm water lower than 40° C. was added 2 mL of acetylcholinesterase aqueous solution (enzyme activity 300 U), and stirred slowly. The feet of a patient were immersed in the solution for 30 minutes, two times per day for three consecutive days.

[8] = test system: patients with allergic rhinitis; assay: Prevention and treatment of allergic rhinitis; assay type: in vivo; settings: 300 U glycerol solution nasal spray, 3-5 times per day for a week; a month later, in most patients
From the text: Acetylcholinesterase (enzyme activity 300 U) glycerol solution was sprayed to the nose of a patient, 3-5 times per day, one spray each time. The course of treatment lasted a week.

[9] = test system: patient who caught a cold at early stage; assay: Prevention and treatment of common cold; assay type: in vivo; settings: 200 U glycerol solution nasal spray
From the text: Acetylcholinesterase (enzyme activity 200 U) glycerol solution was sprayed to the nose of a patient who caught a cold at early stage, 3-5 times per day, one spray each time. Within an hour, symptoms such as headache and fever disappeared. Three days later, other symptoms disappeared, and overall wellbeing of the patient recovered to normal.

[10] = intraperitoneal injection 0.1 mL/10 g, 200 U per mL

B1: Butyrylcholinesterase (protein, UniProt P06276 29-602, looked up)
Cholinesterase: EDDIIIATKNGKVRGMNLTVFGGTVTAFLGIPYAQPPLGRLRFKKPQSLTKWSDIWNATKYANSCCQNIDQSFPGFHGSEMWNPNTDLSEDCLYLNVWIPAPKPKNATVLIWIYGGGFQTGTSSLHVYDGKFLARVERVIVVSMNYRVGALGFLALPGNPEAPGNMGLFDQQLALQWVQKNIAAFGGNPKSVTLFGESAGAASVSLHLLSPGSHSLFTRAILQSGSFNAPWAVTSLYEARNRTLNLAKLTGCSRENETEIIKCLRNKDPQEILLNEAFVVPYGTPLSVNFGPTVDGDFLTDMPDILLELGQFKKTQILVGVNKDEGTAFLVYGAPGFSKDNNSIITRKEFQEGLKIFFPGVSEFGKESILFHYTDWVDDQRPENYREALGDVVGDYNFICPALEFTKKFSEWGNNAFFYYFEHRSSKLPWPEWMGVMHGYEIEFVFGLPLERRDNYTKAEEILSRSIVKRWANFAKYGNPNETQNNSTSWPVFKSTEQKYLTLNTESTRIMTKLRAQQCRFWTSFFPKVLEMTGNIDEAEWEWKAGFHRWNNYMMDWKNQFNDYTSKKESCVGL
B1 was tested. Which “capacity of hydrolyzing SP” value [1] did it give?
The value was “has the capacity of hydrolyzing SP”.

What about the “amount of product, with Fe^+3 (FIG. 3) compared with without Fe^+3 (FIG. 8)” value ([1]; 60 minutes) of the same molecule?
Its value is “much more products having a molecular weight of 1104”.

And the first restriction site [1]?
Its first restriction site is “between Leu^10 and Met^11”.

And the “molecular weight of products detected” value ([1]; in water without Fe^+3, FIGS. 6-9)?
Its value is 1217 and 1104.

What about the “molecular weight of product detected” value ([1]; with Fe^+3 in water, at 25 minutes) of the same molecule?
Its value is 1217.

And the “molecular weight of new fragments detected” value ([1]; with Fe^+3 in water, at 60 minutes)?
Its value is 1104 and 900.

What about the “writhing number compared with the saline solution group” value ([2]; either by intraperitoneal injection or by skin smearing, P<0.05) of the same molecule?
Its value is “significantly decreased the writhing number”.

And the “Inhibition rate (%)” value [2, 10]?
The value was 26.6%.

What about the Writhing number [2, 10] of the same molecule?
The Writhing number was 27.2 ± 9.50*Δ.

And the “inhibition rate on writhing compared with Fenbid” value ([2]; intraperitoneal injection, P<0.05)?
The value was “higher inhibition rate on writhing in mice than Fenbid”.

What about the Writhing number ([2]; smeared onto 1×1 cm cut area of the back) of the same molecule?
Its Writhing number is 29.9 ± 5.17.

What about the “Inhibition rate (%)” value ([2]; smeared onto the back, 200 U per mL) of the same molecule?
Its value is 24.0%.

And the “Swelling degree of the right hind limb of rats” value (shortened to “Swelling degree … of rats”) ([3]; 2 h after administration)?
The value was 0.74 ± 0.04.

And the “Swelling degree … of rats” value ([3]; 6 h after administration)?
Its value is 0.84 ± 0.04.

What about the “Swelling degree … of rats” value ([3]; 12 h after administration) of the same molecule?
The value was 0.87 ± 0.05.

What about the “Swelling degree … of rats” value ([3]; 24 h after administration) of the same molecule?
Its value is 0.83 ± 0.05.

And the “Swelling degree … of rats” value ([3]; 48 h after administration)?
Its value is 0.74 ± 0.02.

And the “Swelling degree … of rats” value ([3]; 72 h after administration)?
Its value is 0.76 ± 0.05.

What about the “Swelling degree … of rats” value ([3]; 7 d after administration) of the same molecule?
The value was 0.67 ± 0.06.

And the “swelling degree compared with the negative control group” value ([3]; at 48 h, 72 h and 7 d after administration, P<0.05)?
Its value is “significantly decrease the swelling degree”.

And the “number of the patients with summer diarrhea” value [4]?
The value was “decreased greatly”.

B2: Acetylcholinesterase (protein, UniProt P22303 32-614, looked up)
Acetylcholinesterase: EGREDAELLVTVRGGRLRGIRLKTPGGPVSAFLGIPFAEPPMGPRRFLPPEPKQPWSGVVDATTFQSVCYQYVDTLYPGFEGTEMWNPNRELSEDCLYLNVWTPYPRPTSPTPVLVWIYGGGFYSGASSLDVYDGRFLVQAERTVLVSMNYRVGAFGFLALPGSREAPGNVGLLDQRLALQWVQENVAAFGGDPTSVTLFGESAGAASVGMHLLSPPSRGLFHRAVLQSGAPNGPWATVGMGEARRRATQLAHLVGCPPGGTGGNDTELVACLRTRPAQVLVNHEWHVLPQESVFRFSFVPVVDGDFLSDTPEALINAGDFHGLQVLVGVVKDEGSYFLVYGAPGFSKDNESLISRAEFLAGVRVGVPQVSDLAAEAVVLHYTDWLHPEDPARLREALSDVVGDHNVVCPVAQLAGRLAAQGARVYAYVFEHRASTLSWPLWMGVPHGYEIEFIFGIPLDPSRNYTAEEKIFAQRLMRYWANFARTGDPNEPRDPKAPQWPPYTAGAQQYVSLDLRPLEVRRGLRAQACAFWNRFLPKLLSATDTLDEAERQWKAEFHRWSSYMVHWKNQFDHYSKQDRCSDL
Which results are given for B2?
capacity of hydrolyzing SP [1]: has the capacity of hydrolyzing SP; first restriction site [1]: between Leu^10 and Met^11; hydrolysis of C-terminal Met^11 of SP ([1]; in water, 0-30 minutes, FIGS. 10-15): hydrolyzed quickly; SP fragment finally left ([1]; in water, FIGS. 10-15): only a 1-5 peptide fragment was left; pains [5]: disappeared; wound and inflammation in patients [5]: reduced significantly; relapse and side effects ([6]; cotton swab on affected area): without relapse and side effects; inflammatory swelling ([6]; cotton swab on affected area 10 min, one or two times per day, two days later): disappeared; pain ([7]; 2 mL of 300 U solution in 2 L warm water, feet immersed 30 minutes, two times per day, three days): disappeared; ringworm spot, smell and other symptoms ([7]; one week later): all gone; symptoms such as nasal obstruction, sneezing, runny nose, nose itching [8]: disappeared, without relapse; symptoms such as headache and fever ([9]; 3-5 times per day, within an hour): disappeared; other symptoms ([9]; three days later): disappeared
